Laboratory results reported in patent US20220363770A1 (Amgen, published 2022).

T1: human PAC1 receptor extracellular domain (ECD) (human, UniProt P41586 24-153)
T1 construct: also called PAC1 receptor ECD; PAC1 ECD
T1 sequence: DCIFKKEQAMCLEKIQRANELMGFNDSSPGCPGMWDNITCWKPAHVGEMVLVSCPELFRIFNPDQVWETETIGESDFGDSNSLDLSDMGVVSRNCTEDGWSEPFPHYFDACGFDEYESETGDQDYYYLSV


Experiments:
[1] = molecular target: T1, human PAC1 receptor extracellular …; test: yeast-displayed Fab, FACS, 10 nM PAC1 receptor ECD
[2] = molecular target: T2, human CGRP receptor extracellular domain (ECD) (human, UniProt Q16602 23-138; O60894 27-117); test: yeast-displayed Fab, FACS, 1 nM human CGRP receptor ECD
T2 construct: also called CGRP receptor ECD; human CGRP receptor ECD
T2 sequence (Q16602 23-138 limits assumed, chain 1 of 2): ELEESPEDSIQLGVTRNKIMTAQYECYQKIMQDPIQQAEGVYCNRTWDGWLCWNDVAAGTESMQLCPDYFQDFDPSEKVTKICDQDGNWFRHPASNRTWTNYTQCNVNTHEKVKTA
T2 sequence (O60894 27-117 limits assumed, chain 2 of 2): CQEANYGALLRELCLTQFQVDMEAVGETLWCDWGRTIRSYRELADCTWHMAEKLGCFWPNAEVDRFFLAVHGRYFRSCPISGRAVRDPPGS

[3] = molecular target: T2, human CGRP receptor extracellular …; test: yeast-displayed Fab, FACS, 10 nM human CGRP receptor ECD
[4] = molecular target: T3, cynomolgus monkey CGRP receptor (cynomolgus monkey, UniProt A0A2K5VQ71 34-472); test: yeast-displayed Fab, FACS, detergent-solubilized lysate of cynomolgus CGRP receptor/HEK cells vs blank cells
T3 construct: whole, on cells; Presented as detergent-solubilized lysate of HEK cells expressing the cynomolgus receptor; also called Cyno CGRP Receptor; Cynomolgus Monkey CGRP Receptor/HEK detergent-solubilized cell lysate
T3 sequence (A0A2K5VQ71 entry or part of it): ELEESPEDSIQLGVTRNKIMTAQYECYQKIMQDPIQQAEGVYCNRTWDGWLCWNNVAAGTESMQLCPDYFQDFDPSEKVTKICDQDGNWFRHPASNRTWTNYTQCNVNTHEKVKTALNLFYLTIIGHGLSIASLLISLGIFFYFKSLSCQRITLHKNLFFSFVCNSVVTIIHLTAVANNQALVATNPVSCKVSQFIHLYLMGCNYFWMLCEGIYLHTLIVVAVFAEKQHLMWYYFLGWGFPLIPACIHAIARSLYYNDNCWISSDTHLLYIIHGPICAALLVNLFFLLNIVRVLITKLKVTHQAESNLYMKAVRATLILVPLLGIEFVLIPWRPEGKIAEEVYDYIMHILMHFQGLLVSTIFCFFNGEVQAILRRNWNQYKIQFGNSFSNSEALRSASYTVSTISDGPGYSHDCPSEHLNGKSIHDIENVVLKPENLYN

[5] = molecular target: T4, human CGRP receptor (human CRLR / human RAMP1 heterodimer) (human, UniProt Q16602 23-461; O60894 27-148); test: yeast-displayed Fab, FACS, detergent-solubilized lysate of human CGRP receptor-expressing cells vs blank cells
T4 construct: Full-length receptor: endogenous on SK-N-MC (HTB-10) cells in the cAMP assay; also called hCGRP receptor on SK-N-MC (HTB-10) cells; Human CGRP Receptor/AMID detergent-solubilized cell lysate
T4 sequence (Q16602 23-461 limits assumed, chain 1 of 2): as the sequence (A0A2K5VQ71 entry or part of it) above, with N55D, V431L counted along it
T4 sequence (O60894 27-148 limits assumed, chain 2 of 2): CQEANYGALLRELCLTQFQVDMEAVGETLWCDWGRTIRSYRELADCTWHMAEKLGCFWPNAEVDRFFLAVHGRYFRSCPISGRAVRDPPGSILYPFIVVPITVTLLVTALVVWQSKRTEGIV

Mutant vs. 4E4.2 Parent B/D Ratio [1]	Normalized Binding Signal/Display Signal (B/D) [1]	Mutant vs. 4E4.2 Parent B/D Ratio [2]	Normalized Binding Signal/Display Signal (B/D) [2]	Mutant vs. 4E4.2 Parent B/D Ratio [3]	Normalized Binding Signal/Display Signal (B/D) [3]	Cyno CGRP Receptor/Blank Cells Specific Binding [4]	Mutant vs. 4E4.2 Parent Specific Binding Ratio [4]	Human CGRP Receptor/Blank Cells Specific Binding [5]	Mutant vs. 4E4.2 Parent Specific Binding Ratio [5]	Binder
–	–	6.7 fold	0.82 ratio	24.6 fold	3.78 ratio	5.2 ratio	2.7 fold	24.4 ratio	3.1 fold	anti-CGRP receptor variant 05, yeast-displayed Fab (Fab, V domains shown, also called Variant Ab ID 05) VH: QVQLVESGGGVVQPGRSLRLSCAASGFTFSSFGMHWVRQAPGKGLEWVAVISFDGSIKYSVDSVKGRFTISRDNSKNTLFLQMNSLRAEDTAVYYCARDRLNYYESSGYYHYKYYGMAVWGQGTTVTVSS VL: QSVLTQPPSVSAAPGQKVTISCSGSFSNIGRSTVSWYQQLPGTAPKLLIYDNRWRAGGIPDRFSGSKSGTSATLGITGLQTGDEADYYCGTWDYQWKAVVFGGGTKLTVLG
0.8 fold	0.09 ratio	1.7 fold	0.21 ratio	5.8 fold	0.89 ratio	4.6 ratio	2.4 fold	25.8 ratio	3.2 fold	anti-CGRP receptor variant 01, yeast-displayed Fab (Fab, V domains shown, also called Variant Ab ID 01) VH: QVQLVESGGGVVQPGRSLRLSCAASGFTFSSFGMHWVRQAPGKGLEWVAVISFDGSIKYSVDSVKGRFTISRDNSKNTLFLQMNSLRAEDTAVYYCARDRLNYYESSGYYHYKYYGMAVWGQGTTVTVSS VL: QSVLTQPPSVSAAPGQKVTISCSGSYSNIGRYSVSWYQQLPGTAPKLLIYDNNKRPSGIPDRFSGSKSGTSATLGITGLQTGDEADYYCGTWDSRLSAVVFGGGTKLTVLG
1.2 fold	0.13 ratio	1.8 fold	0.22 ratio	5.3 fold	0.81 ratio	3.1 ratio	1.6 fold	11.7 ratio	1.5 fold	anti-CGRP receptor variant 07, yeast-displayed Fab (Fab, V domains shown, also called Variant Ab ID 07) VH: QVQLVESGGGVVQPGRSLRLSCAASGFYFMTYGMHWVRQAPGKGLEWVAVISFDGSIKYSVDSVKGRFTISRDNSKNTLFLQMNSLRAEDTAVYYCARDRLNYYESSGYYHYKYYGMAVWGQGTTVTVSS VL: QSVLTQPPSVSAAPGQKVTISCSGSSSNIGNNYVSWYQQLPGTAPKLLIYDNNKRPSGIPDRFSGSKSGTSATLGITGLQTGDEADYYCGTWDSRLSAVVFGGGTKLTVLG
1 fold	0.1 ratio	1.4 fold	0.17 ratio	3.1 fold	0.48 ratio	4.9 ratio	2.5 fold	18 ratio	2.3 fold	anti-CGRP receptor variant 08, yeast-displayed Fab (Fab, V domains shown, also called Variant Ab ID 08) VH: QVQLVESGGGVVQPGRSLRLSCAASGFTFSSFGMHWVRQAPGKGLEWVAVISFDGSIKYSVDSVKGRFTISRDNSKNTLFLQMNSLRAEDTAVYYCARDRLNYYESSGYYHYKYYGMAVWGQGTTVTVSS VL: QSVLTQPPSVSAAPGQKVTISCSGSYSNIGWWPVSWYQQLPGTAPKLLIYDNNKRPSGIPDRFSGSKSGTSATLGITGLQTGDEADYYCGTWDSRLSAVVFGGGTKLTVLG
1.1 fold	0.12 ratio	1.6 fold	0.2 ratio	3.4 fold	0.53 ratio	3.1 ratio	1.6 fold	9.5 ratio	1.2 fold	anti-CGRP receptor variant 04, yeast-displayed Fab (Fab, V domains shown, also called Variant Ab ID 04) VH: QVQLVESGGGVVQPGRSLRLSCAASGFTFSSFGMHWVRQAPGKGLEWVAVISFDGSIKYSVDSVKGRFTISRDNSKNTLFLQMNSLRAEDTAVYYCARDRLNYYRSFGYYGYHYYGMAVWGQGTTVTVSS VL: QSVLTQPPSVSAAPGQKVTISCSGSSSNIGNNYVSWYQQLPGTAPKLLIYDNNKRPSGIPDRFSGSKSGTSATLGITGLQTGDEADYYCGTWDSRLSAVVFGGGTKLTVLG

Further lines, the binder ahead of its results:

Binder	Mutant vs. 4E4.2 Parent B/D Ratio [1]	Normalized Binding Signal/Display Signal (B/D) [1]	Mutant vs. 4E4.2 Parent B/D Ratio [2]	Normalized Binding Signal/Display Signal (B/D) [2]	Mutant vs. 4E4.2 Parent B/D Ratio [3]	Normalized Binding Signal/Display Signal (B/D) [3]	Cyno CGRP Receptor/Blank Cells Specific Binding [4]	Mutant vs. 4E4.2 Parent Specific Binding Ratio [4]	Human CGRP Receptor/Blank Cells Specific Binding [5]	Mutant vs. 4E4.2 Parent Specific Binding Ratio [5]
anti-CGRP receptor variant 06, yeast-displayed Fab (Fab, V domains shown, also called Variant Ab ID 06) VH: QVQLVESGGGVVQPGRSLRLSCAASGFTFSSFGMHWVRQAPGKGLEWVAVISFDGSIKYSVDSVKGRFTISRDNSKNTLFLQMNSLRAEDTAVYYCARDRLNYYESSGYYHYKYYGMAVWGQGTTVTVSS VL: QSVLTQPPSVSAAPGQKVTISCSGSYSNIGRKSVSWYQQLPGTAPKLLIYDNNKRPSGIPDRFSGSKSGTSATLGITGLQTGDEADYYCGTWDSRLSAVVFGGGTKLTVLG	1 fold	0.1 ratio	2.2 fold	0.27 ratio	7.4 fold	1.13 ratio	4.8 ratio	2.5 fold	17.5 ratio	2.2 fold
4E4.2 parental Fab, yeast-displayed (Fab, V domains shown, also called parental 4E4.2 Fab) VH: QVQLVESGGGVVQPGRSLRLSCAASGFTFSSFGMHWVRQAPGKGLEWVAVISFDGSIKYSVDSVKGRFTISRDNSKNTLFLQMNSLRAEDTAVYYCARDRLNYYESSGYYHYKYYGMAVWGQGTTVTVSS VL: QSVLTQPPSVSAAPGQKVTISCSGSSSNIGNNYVSWYQQLPGTAPKLLIYDNNKRPSGIPDRFSGSKSGTSATLGITGLQTGDEADYYCGTWDSRLSAVVFGGGTKLTVLG	–	–	–	–	–	–	1.9 ratio	1 fold	8 ratio	1 fold
anti-CGRP receptor variant 12, yeast-displayed Fab (Fab, V domains shown, also called Variant Ab ID 12) VH: QVQLVESGGGVVQPGRSLRLSCAASGFTFSSFGMHWVRQAPGKGLEWVAVISFDGSIKYSVDSVKGRFTISRDNSKNTLFLQMNSLRAEDTAVYYCARDRLNYYESSGYYHYKYYGMAVWGQGTTVTVSS VL: QSVLTQPPSVSAAPGQKVTISCSGSRSNIGRYSVSWYQQLPGTAPKLLIYDNRYRAQGIPDRFSGSKSGTSATLGITGLQTGDEADYYCGTWDWATTSVVFGGGTKLTVLG	–	–	2.8 fold	0.35 ratio	9.7 fold	1.5 ratio	10.3 ratio	5.4 fold	–	–
anti-CGRP receptor variant 02, yeast-displayed Fab (Fab, V domains shown, also called Variant Ab ID 02) VH: QVQLVESGGGVVQPGRSLRLSCAASGFTFSSFGMHWVRQAPGKGLEWVAVISFDGSIKYSVDSVKGRFTISRDNSKNTLFLQMNSLRAEDTAVYYCARDRLNYYESSGYYHYKYYGMAVWGQGTTVTVSS VL: QSVLTQPPSVSAAPGQKVTISCSGSRSNIGIKAVSWYQQLPGTAPKLLIYDNNKRPSGIPDRFSGSKSGTSATLGITGLQTGDEADYYCGTWDSRLSAVVFGGGTKLTVLG	0.9 fold	0.1 ratio	1.4 fold	0.17 ratio	3.8 fold	0.58 ratio	5.3 ratio	2.8 fold	14.2 ratio	1.8 fold
